Assay [1] addresses recombinant human tumor necrosis factor-α (human) (UniProt P01375). Briefly: cell-based or functional assay.
For assay [2] the target is unchanged. In words: SPR, Biacore X100; antibody captured by goat anti-human IgG Fc on CM5 chip, TNFα as analyte. In general terms: In SPR one partner is held on a chip, and binding of the other changes the refractive index at the surface.

pKd: −log10 of the molar value.

Broadly, the pKd is the negative decadic logarithm of the Kd, by convention in mol/L.

Chain of recombinant human tumor necrosis factor-α (human) (P01375 77-233 limits assumed): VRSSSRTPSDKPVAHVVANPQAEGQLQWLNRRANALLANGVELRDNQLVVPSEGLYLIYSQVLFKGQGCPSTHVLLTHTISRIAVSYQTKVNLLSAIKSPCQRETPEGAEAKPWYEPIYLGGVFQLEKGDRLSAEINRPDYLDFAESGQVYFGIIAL

Consider “Humira (adalimumab, purchased from Abbott Laboratories) (antibody)”, for which, in assay [1], the EC50(ng/mL), neutralization of TNFα killing effect on L929 cell worked out at 19.1 ng/mL and the IC50 (concentration at which 50% of the rhTNFα toxicity to L929 cells can be neutralized) was 0.01 to 0.04 µg/mL. In assay [2], the Ka was 9.3e+09 M⁻¹ and the pKd is 9.97.

The values above are taken from patent US20120219547A1.
